These results are taken from ChEMBL document CHEMBL1135258, “Substrate spectrum of tyrocidine thioesterase probed with randomized peptide N-acetylcysteamine thioesters” (Bioorg Med Chem Lett, 2002).

Where “and” joins values, the source holds several entries; their conditions need not be identical. Equal values may be shown once.

Holding throughout (conditions): Brevibacillus brevis
Substrate in data set [1]: CC(=O)NCCSC(=O)[C@H](CC(C)C)NC(=O)[C@H](CCCN)NC(=O)[C@@H](NC(=O)[C@H](Cc1ccc(O)cc1)NC(=O)[C@H](CCC(N)=O)NC(=O)[C@H](CC(N)=O)NC(=O)[C@@H](Cc1ccccc1)NC(=O)[C@H](Cc1ccccc1)NC(=O)[C@H](CC(=O)O)NC(=O)[C@H](N)Cc1ccccc1)C(C)C
Description: (§1) Apparent kinetic constant (Km) determined for tyrocidine thioesterase amplified from Bacillus brevis (ATCC8185).

Substrate in data set [2]: CC[C@H](C)[C@H](NC(=O)[C@H](Cc1ccccc1)NC(=O)[C@@H]1CCCN1C(=O)[C@H](N)Cc1ccccc1)C(=O)N[C@@H](CC(N)=O)C(=O)N[C@@H](CCC(N)=O)C(=O)N[C@@H](Cc1ccc(O)cc1)C(=O)N[C@H](C(=O)N[C@@H](CCCN)C(=O)N[C@@H](CC(C)C)C(=O)SCCNC(C)=O)C(C)C
The data set is described as §1.

Substrate in data set [3]: CC(=O)NCCSC(=O)[C@H](CC(C)C)NC(=O)[C@H](CCCN)NC(=O)[C@@H](NC(=O)[C@H](Cc1ccc(O)cc1)NC(=O)[C@H](CCC(N)=O)NC(=O)[C@H](CC(N)=O)NC(=O)[C@H](CC(N)=O)NC(=O)[C@H](Cc1ccccc1)NC(=O)[C@@H]1CCCN1C(=O)[C@H](N)Cc1ccccc1)C(C)C
The data set is described as §1.

Substrate in data set [4]: CC(=O)NCCSC(=O)[C@H](CC(C)C)NC(=O)[C@H](CCCN)NC(=O)[C@@H](NC(=O)[C@H](Cc1ccc(O)cc1)NC(=O)[C@H](CCC(N)=O)NC(=O)[C@H](CC(N)=O)NC(=O)[C@H](Cc1c[nH]c2ccccc12)NC(=O)[C@H](Cc1ccccc1)NC(=O)[C@@H]1CCCN1C(=O)[C@H](N)Cc1ccccc1)C(C)C
The data set is described as §1.

Substrate in data set [5]: CC(=O)NCCSC(=O)[C@H](CC(C)C)NC(=O)[C@H](CCCN)NC(=O)[C@@H](NC(=O)[C@H](Cc1ccc(O)cc1)NC(=O)[C@H](CCC(N)=O)NC(=O)[C@H](CC(N)=O)NC(=O)[C@H](CC(=O)O)NC(=O)[C@H](Cc1ccccc1)NC(=O)[C@@H]1CCCN1C(=O)[C@H](N)Cc1ccccc1)C(C)C
Described as §1.

Substrate in data set [6]: CC(=O)NCCSC(=O)[C@H](CC(C)C)NC(=O)[C@H](CCCN)NC(=O)[C@@H](NC(=O)[C@H](Cc1ccc(O)cc1)NC(=O)[C@H](CCC(N)=O)NC(=O)[C@H](CC(N)=O)NC(=O)[C@@H](Cc1ccccc1)NC(=O)[C@H](Cc1ccccc1)NC(=O)[C@@H]1CCCN1C(=O)[C@H](N)Cc1ccccc1)C(C)C
The description is as §1.

Substrate in data set [7]: CC(=O)NCCSC(=O)[C@H](CC(C)C)NC(=O)[C@H](CCCN)NC(=O)[C@H](CC(N)=O)NC(=O)[C@H](Cc1ccc(O)cc1)NC(=O)[C@H](CCC(N)=O)NC(=O)[C@H](CC(N)=O)NC(=O)[C@@H](Cc1ccccc1)NC(=O)[C@H](Cc1ccccc1)NC(=O)[C@@H]1CCCN1C(=O)[C@H](N)Cc1ccccc1
The data set is described as §1.

Substrate in data set [8]: CC(=O)NCCSC(=O)[C@H](CC(C)C)NC(=O)[C@H](CCCN)NC(=O)[C@@H](NC(=O)[C@H](Cc1ccc(O)cc1)NC(=O)[C@H](CCC(N)=O)NC(=O)[C@H](CC(N)=O)NC(=O)[C@H](C)NC(=O)[C@H](Cc1ccccc1)NC(=O)[C@@H]1CCCN1C(=O)[C@H](N)Cc1ccccc1)C(C)C
The description is as §1.

Substrate in data set [9]: CC(=O)NCCSC(=O)[C@H](CC(C)C)NC(=O)[C@H](CCCN)NC(=O)[C@@H](NC(=O)[C@H](Cc1ccc(O)cc1)NC(=O)[C@H](CC(C)C)NC(=O)[C@H](CC(N)=O)NC(=O)[C@@H](Cc1ccccc1)NC(=O)[C@H](Cc1ccccc1)NC(=O)[C@@H]1CCCN1C(=O)[C@H](N)Cc1ccccc1)C(C)C
The data set is described as §1.

Substrate in data set [10]: CC(=O)NCCSC(=O)[C@H](CC(C)C)NC(=O)[C@H](CCCN)NC(=O)[C@@H](NC(=O)[C@H](Cc1ccc(O)cc1)NC(=O)[C@H](CCC(N)=O)NC(=O)[C@H](CC(N)=O)NC(=O)[C@H](Cc1ccc(O)cc1)NC(=O)[C@H](Cc1ccccc1)NC(=O)[C@@H]1CCCN1C(=O)[C@H](N)Cc1ccccc1)C(C)C
The description is as §1.

Substrate in data set [11]: CC(=O)NCCSC(=O)[C@H](CC(C)C)NC(=O)[C@H](CCCN)NC(=O)[C@@H](NC(=O)[C@H](Cc1ccc(O)cc1)NC(=O)[C@H](CCC(N)=O)NC(=O)[C@H](CC(N)=O)NC(=O)[C@@H]1CCCN1C(=O)[C@H](Cc1ccccc1)NC(=O)[C@@H]1CCCN1C(=O)[C@H](N)Cc1ccccc1)C(C)C
Described as §1.

Substrate in data set [12]: CC(=O)NCCSC(=O)[C@H](CC(C)C)NC(=O)[C@H](CCCN)NC(=O)[C@@H](NC(=O)[C@H](Cc1ccc(O)cc1)NC(=O)[C@@H](NC(=O)[C@H](CC(N)=O)NC(=O)[C@@H](Cc1ccccc1)NC(=O)[C@H](Cc1ccccc1)NC(=O)[C@@H]1CCCN1C(=O)[C@H](N)Cc1ccccc1)C(C)C)C(C)C
Described as §1.

Substrate in data set [13]: CC(=O)NCCSC(=O)[C@H](CC(C)C)NC(=O)[C@H](CCCN)NC(=O)[C@H](CCC(N)=O)NC(=O)[C@H](Cc1ccc(O)cc1)NC(=O)[C@H](CCC(N)=O)NC(=O)[C@H](CC(N)=O)NC(=O)[C@@H](Cc1ccccc1)NC(=O)[C@H](Cc1ccccc1)NC(=O)[C@@H]1CCCN1C(=O)[C@H](N)Cc1ccccc1
Described as §1.

Substrate in data set [14]: CC(=O)NCCSC(=O)[C@H](CC(C)C)NC(=O)[C@H](CCCN)NC(=O)[C@@H](NC(=O)[C@H](Cc1ccc(O)cc1)NC(=O)[C@H](CCC(N)=O)NC(=O)[C@H](CC(N)=O)NC(=O)[C@@H](Cc1ccccc1)NC(=O)[C@H](CC(N)=O)NC(=O)[C@@H]1CCCN1C(=O)[C@H](N)Cc1ccccc1)C(C)C
Described as §1.

Substrate in data set [15]: CC(=O)NCCSC(=O)[C@H](CC(C)C)NC(=O)[C@H](CCCN)NC(=O)[C@@H](NC(=O)[C@H](Cc1ccc(O)cc1)NC(=O)[C@H](CCC(N)=O)NC(=O)[C@H](CC(N)=O)NC(=O)CNC(=O)[C@H](Cc1ccccc1)NC(=O)[C@@H]1CCCN1C(=O)[C@H](N)Cc1ccccc1)C(C)C
Described as §1.

B1: Thioesterase GrsT homolog tycF (Brevibacillus brevis), O30412 (protein)
chain: MKLFCFPYAGGLPGIYYSWKSRLPPTFLEIDAFEVRPHIPQPNRDVFLPTSFYELLEDVCDRITPALTETPFAFFGHSMGGLVAFELTRKLMQKGAPLPQHLFLSASRAPHAYGKLAKTYNLPHDEFVEALRKLGGTPDDVLENQELLELFLPILRADFQAVQTYEMNPDLPRQVPVNMTVLYGTEDTIALEDIWAWRDYCQGACQFFPVSGGHFFIHHQTSPILEIIQNVLKEEKTVAIHSSF
A word on the Km: it is the concentration of substrate that gives half-maximal velocity. In the case of B1, the Km in [1] was 96 µM; in data set [2], 32 µM; in data set [3] it was 19 µM; in [4] it was 7.5 µM; in data set [5], 238 µM; in data set [6] it was 13 µM and 9.2 µM. The Km in data set [7] was 55 µM; in [8], 19 µM; in [9] it was 135 µM; in data set [10] it was 65 µM; in data set [11] it was 132 µM; in data set [12], 54 µM. Besides, the Km in data set [13] turned out to be 62 µM; in [14], 172 µM; in data set [15], 22 µM.
